From patent publication US20240368285A1 (HEFEI TG IMMUNOPHARMA, published 2024)

How the values were obtained:
MICA008α3-Fc = target: T1, MICA008α3-Fc (human); assay: ELISA on coated MICA*008 α3-Fc (1 µg/ml), HRP anti-human Fab secondary, OD450
T1 construct: also called MICA*008-Fc; domain α3 of MICA-008 Fc fusion protein
Protocol: (§1) After the antibodies were added, signal intensity was used for judging the binding characteristics of the antibodies and MICA and MICB.
(§2) The fusion proteins (produced in the Applicant's laboratory; an amino acid sequence of MICA002α3-Fc is as set forth in SEQ ID NO: 22; an amino acid sequence of MICA005α3-Fc is as set forth in SEQ ID NO: 24; an amino acid sequence of MICA008α3-Fc is as set forth in SEQ ID NO: 25; an amino acid sequence of MICA004α3-Fc is as set forth in SEQ ID NO: 23; an amino acid sequence of MICB001α3-Fc is as set forth in SEQ ID NO: 26; and an amino acid sequence of MICB005α3-Fc is as set forth in SEQ ID NO: 27) were diluted to a concentration of 1 μg/ml with PBS and then added into a 96-well plate in a volume of 100 μl/well. The plate was placed at 4° C. overnight. The PBS in the 96-well plate was removed by sucking. After the plate was washed with PBST (that is, PBS having a pH value of 7.2 included 0.1 volume % of Tween 20) for 6 times, PBS containing 10% of BSA was added in a volume of 200 μl/well. The plate was incubated at 37° C. for 2 hours for blocking. The blocking solution was removed. […]

MICB001α3-Fc = target: T2, MICB001α3-Fc; assay: ELISA on coated MICB*001 α3-Fc (1 µg/ml), HRP anti-human Fab secondary, OD450
T2 construct: also called MICB*001-Fc; domain α3 of MICB-001 Fc fusion protein
T2 sequence (chain, as listed by the source limits assumed): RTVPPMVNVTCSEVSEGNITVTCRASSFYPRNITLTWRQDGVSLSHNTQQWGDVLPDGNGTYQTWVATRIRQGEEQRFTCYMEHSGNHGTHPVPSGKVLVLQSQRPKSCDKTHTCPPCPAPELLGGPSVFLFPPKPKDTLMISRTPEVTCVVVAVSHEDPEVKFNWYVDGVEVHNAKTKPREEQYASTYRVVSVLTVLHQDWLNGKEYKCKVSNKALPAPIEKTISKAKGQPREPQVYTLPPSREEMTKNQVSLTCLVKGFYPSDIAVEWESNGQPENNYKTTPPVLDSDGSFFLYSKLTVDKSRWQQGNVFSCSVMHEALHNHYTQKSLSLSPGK
Protocol: as §1, §2

T1 sequence (chain, as listed by the source limits assumed): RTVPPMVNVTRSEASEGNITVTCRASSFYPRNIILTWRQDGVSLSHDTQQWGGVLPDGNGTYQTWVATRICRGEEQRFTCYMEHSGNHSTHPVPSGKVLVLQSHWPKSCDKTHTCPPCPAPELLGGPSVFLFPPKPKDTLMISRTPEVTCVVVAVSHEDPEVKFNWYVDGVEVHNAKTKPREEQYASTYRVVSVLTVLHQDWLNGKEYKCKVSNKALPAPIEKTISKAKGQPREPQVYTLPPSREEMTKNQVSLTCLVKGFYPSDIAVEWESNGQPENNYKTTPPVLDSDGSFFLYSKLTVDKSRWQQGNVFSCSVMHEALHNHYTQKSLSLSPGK

B1: affinity maturation antibody h5A1002 (antibody, V domains shown)
VH: QVQLQESGPGLVKPSETLSLTCTVSGFSLTTYGGHWIRQPPGKGLEWIGMIWTDGWTDYNAAFISRVTISVDTSKNQFSLKLSSVTAADTAVYYCARKGHGYYYAMDYWGQGTLVTVSS
VL: EIVLTQSPGTLSLSPGERATLSCTASSSVSSSYLHWYQQKPGQAPRLLIYSTSNLISGIPDRFSGSGSGTDFTLTISRLEPEDFAVYYCHQYHRSPFTFGQGTKLEIKR
notes: Human IgG1, kappa; also called h5A1002-hIgG1
EC50 (read off the curve) (MICA008α3-Fc): ~0.08 µg/mL
EC50 (read off the curve) (MICB001α3-Fc): ~0.05 µg/mL
